# Results taken from the supplement of paper PMC12042874.
# ± gives the uncertainty stated by the source.
# Assay: amyloid nucleation score (Sup35N fusion, yeast selection) (log enrichment); library NNK2; higher = more nucleation; inactive = no reads after selection
# Outline: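 For the nucleation score, DiMSum gave the log enrichment of output over input reads, centred on the mode score of non-aggregating sequences. Psi-negative yeast expressing Sup35N fused to peptides of 20 random codons were induced with 100 μM copper sulfate for 24 hours and grown 7 days at 30°C on medium lacking adenine and uracil. Input and output plasmid inserts were Illumina-sequenced, and sequences with under 100 input reads were excluded.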
row,Substance,amyloid nucleation score
1,NMKGTPVYLSFYDCSRPVGW,4.04 ± 0.11
2,IFHRLKDLT,-1.24 ± 0.48
3,FTFVWNVVQFGTFYGSHLRG,4.5 ± 0.071
4,IVQRLPVFKFLMYELCLLNG,-0.894 ± 0.38
5,IPPNGPVYCRYHNRQVCRAG,0.203 ± 0.34
6,DVKWA,1.1 ± 0.21
7,ANNFCRINESDWVRSVILPS,0.042 ± 1.1
8,IMGKI,0.163 ± 0.79
9,DVKIVYSKTDRWRMGRSPES,1.55 ± 0.2
10,VTTSTLMYWRGRTGALLAPS,1.84 ± 0.22
11,LFAIGEVTAYSGRLFSFYTQ,1.79 ± 0.26
12,VYLVKAGLYSRMNQLLPLCS,0.607 ± 0.34
13,LILLNFTADSRGRRMLCCAW,-0.584 ± 0.76
14,VNLITGIMYI,inactive
15,IVNLPSYYRASRQEDVVKGR,0.75 ± 0.36
16,QPISVMSNLSEIIWTYSMRA,-0.002 ± 0.63
17,ERRTCTRLPNVSRARIR,1.27 ± 0.21
18,AFKKYQS,-0.114 ± 0.74
19,ACNLRAVYFT,-1.47 ± 0.39
20,IVPRIKSAMLLKF,-0.301 ± 0.21
21,GFCKEYGEVLIIRLSDSCCD,-0.393 ± 0.56
22,RYRFVIMDDLIIMNAFNSIE,4.48 ± 0.12
23,HESRGCSHKTNSMCGHLILL,-0.309 ± 0.45
24,SWIIGVWIR,-0.287 ± 0.45
25,WLFSMRGGDAPKSKRRSIHH,4.96 ± 0.1
26,SELWYVPLANVE,0.242 ± 0.5

row,Substance,amyloid nucleation score
1,FFTVFLQDIMVWRDQWIYPQ,inactive
2,FILVCWISIFGLFMIPGMWD,-1.13 ± 0.64
3,ARLAPRSLPCKWSPVAEKQR,-0.098 ± 0.79
4,DCNTCKDKPWNAINQPNKKA,0.121 ± 0.23
5,PTRFSLDHWFPSVHYYPRLY,-1.05 ± 1.1
6,LSSCLHEIRDSVVVRVVVVY,-0.684 ± 0.5
7,LGAGTSWAWLNLTYSEGTYK,0.27 ± 0.8
8,IVDLNLGSEESLFSYLGMSV,-2.45 ± 0.54
9,SSCISHGGRK,-0.546 ± 0.45
10,TLNNCRPFCLLELANLINRD,3.4 ± 0.058
11,STATHSWGCFSWNSCFHGRQ,9.493 ± 0.05
12,IPDHFRTSSAYRLGDRHGG,0.103 ± 0.43
13,WVGHFIDISDATGRPWHMKA,-0.107 ± 0.53
14,IVDTRGVPIWREISSIRVDL,-0.669 ± 0.74
15,GGSSRQTHW,-0.375 ± 1.1
16,SECKSRRYIWWHIWYDLS,0.49 ± 0.12
17,DLAPLLR,0.132 ± 0.56
18,WMGNLLGVRFMIKMIGYRAL,inactive
19,INNDTVMVVHRRIHLLYYLM,inactive
20,VRRCIVRI,0.267 ± 0.4
21,NFRRLVMGSRNYSLFCGDKE,inactive
22,NARQSLADSSAVRPDARTLI,0.456 ± 0.45
23,ISEIQDLLGSALTH,2.09 ± 0.079
24,GCRTFDPSNGAAIDGAMSFV,inactive
25,WAWIHSADLNYNCVMRGCLP,2.16 ± 0.14
26,FEYPLCKTFEIRKPVFRVWV,-0.089 ± 0.79

row,Substance,amyloid nucleation score
1,CIRVGSQNVMFPIDSEPSDL,0.482 ± 0.46
2,PTSDMWSCNNL,0.961 ± 0.81
3,SLEGYKLDAQRRFKMVCEMV,-0.267 ± 0.33
4,FVNYSRGRFQVGLVMFRVRP,0.427 ± 0.74
5,NKYKLNLYMRVIGDQNNPVN,-0.249 ± 1
6,MSLPRSPAWGV,0.863 ± 0.27
7,ESHTGYNIPVIRSHPPYNRS,-0.869 ± 0.64
8,YSGVSTTSFISDKPYRSRRR,-1.95 ± 1
9,FCSPCSFLINSY,6.514 ± 0.048
10,IQHTVMWNALLLALAVSRLR,0.667 ± 0.21
11,WLSDRASCYRESRCVEQ,-0.742 ± 0.42
12,DVGCAMPSYTRGWYVYSNLM,0.58 ± 0.42
13,TIYVRQ,-1.4 ± 1.1
14,SWLSQKSLESALRAIMNGKY,2.13 ± 0.16
15,YGKYSFSWEIRCLCEMTTKN,-0.608 ± 0.78
16,YSCRIDF,0.8 ± 0.54
17,NKVFSFDYVVNNE,inactive
18,YSDSSSREMEQSGL,-0.199 ± 0.63
19,GNLWGYECVYINKQICGSSR,3.49 ± 0.05
20,FYRRNNSPYSFAVRCGVWFL,inactive
21,ANDPCGVKASRLYVLVSPRV,0.707 ± 0.19
22,SCCLLPKYELRIIYCASRRK,-0.324 ± 1.1
23,NTLNVWACVGLLLQ,6.48 ± 0.075
24,CFLDGYWPGGELMKIGDYAL,0.248 ± 0.28
25,PWIAGCNMRTNWFNILNCPV,-0.583 ± 0.38
26,CMVRLKPDFITALRLSLRGR,inactive

row,Substance,amyloid nucleation score
1,LVSRSYD,-0.341 ± 0.79
2,SLLLKVMSR,-0.627 ± 0.79
3,GASSPGSAMLTVGILEVVVG,-0.375 ± 0.31
4,HPFSSRSS,-0.018 ± 1.1
5,SGCLQRFSQSLGRTCFIWLG,-1.29 ± 0.75
6,ICGPLTRRVIDCGAYTKY,-0.19 ± 0.26
7,IFYRYFSVFNCPAICRQYRK,6.382 ± 0.054
8,NVFVLFVHRVVGQELAELLG,4.58 ± 0.065
9,LSKLNGGSSVTSV,0.665 ± 0.2
10,LLLLTHYEAITR,0.305 ± 0.43
11,NLRRKH,0.294 ± 0.8
12,TVCSIMASFQYRDSRRQRSG,4.02 ± 0.078
13,LITFLCFYHLKHYGLHTVGW,-1.03 ± 0.36
14,LLFSLYDYRQIDFNSGHRHV,4.37 ± 0.056
15,SGINNIWYEDLTLPKWSKG,-0.401 ± 0.55
16,SRKKVMHYDFLVSGVVTHRW,inactive
17,STSKDLMYDCL,inactive
18,DFPRRWSWFITRESWGVWRT,1.65 ± 0.34
19,SSTAVSQILH,inactive
20,VLDSWRR,-0.963 ± 1.1
21,SMGLDFPWMSRDTGNFGTEI,-0.337 ± 0.4
22,LHGSGMENALSVPDMEQFPA,-0.159 ± 0.63
23,QKRPVDIVPDHVWLWTR,0.114 ± 0.55
24,WNVSGC,-0.474 ± 0.55
25,LPFLPSCVVEKQVEYVWIRG,0.332 ± 0.25
26,RLGEWECTHQVPFHSRWACG,-0.087 ± 0.76

row,Substance,amyloid nucleation score
1,DSWNRYNPFCPWKSYVTDSH,-0.926 ± 0.76
2,IGWTFIHVPCSAQRFVAIVS,0.827 ± 0.51
3,PYVHVYLWQSLKALVYLTCY,inactive
4,NLSLAFALMTSVVNHNMWSG,5.661 ± 0.044
5,TMVALKI,-0.15 ± 0.44
6,NFSYNRCVR,0.383 ± 0.49
7,TSYTWDHCGGHIKSRYSGVG,inactive
8,RLECRLNSEPFYKDWTSSDS,0.674 ± 0.39
9,QIPCCWGPYVWSRAMGCSLE,1.78 ± 0.15
10,LLQIQCICEGMRQWMLKYYY,-0.994 ± 1.1
11,QDMLWVPCNSGYRTQ,0.627 ± 0.47
12,IRWFTEKISDKHLTGCRGLT,0.345 ± 0.45
13,DSSVQRRLS,0.121 ± 0.56
14,RIWMLY,0.42 ± 0.66
15,RVIDLVTCKAHSGWSVLGYM,-0.402 ± 0.37
16,DAVDFGISVSIHRSVREGWR,4.89 ± 0.11
17,MYVRYANDFVLLIMQVYRCF,-0.488 ± 1
18,GVVTSSSRYLY,0.072 ± 1.1
19,ITYNTS,0.936 ± 0.44
20,KRSLNLLKGLIYL,-1.05 ± 1.1
21,NDLARSFRV,-1.13 ± 1.1
22,KGFIIFSFSSAIR,2.46 ± 0.1
23,TGVYRWSEMSMVMFFFHVEC,-0.226 ± 0.63
